“And” between values parts separate entries of the source, which are not always exact repeats. Equal values may be shown once.
Experiments:
[1] = Toxicity study in the beagle dog following intravenous infusion; conditions: for Reduction in WBC at D5 (%) / Toxic signs Day 1 / Toxic signs Following Days: i.v. infusion
Method: Adult female and male beagle dogs were individually housed with free access to tap water. A pellet diet was distributed daily.
Dogs (1 dog for each drug and dose) were infused intravenously through the cephalic or saphenous vein. These intravenous infusions were made using a single-use catheter (Intraflon®) and a plastic syringe connected to a syringe pump. During the injection, the animals were restrained in a hammock.
Conjugates were dissolved in water for injection (10% of final volume) and diluted with 0.9% NaCl to their final concentration. The volume administered to each animal was adjusted according to body weight.
Clinical signs, hematological and intestinal toxicities were monitored during a period of 15 days after infusion. Each animal was checked at least twice a day for mortality or signs of morbidity.
The body weight of each animal was recorded on the day −1, 4, 10 and 13.
Peripheral blood samples were taken into EDTA tubes for the determination of following parameters on days −1, 5, 11 and 14: erythrocytes, hemoglobin, mean cell volume, packed cell volume, mean cell hemoglobin concentration, mean cell hemoglobin, thrombocytes, leucocytes, differential white cell count with cell morphology.

HT-29 tumors = test: Combination of DPV1047-BCH-SN38 with 5-FU or bevacizumab in the HT-29 tumor model; conditions: i.v.
Method: Mice were implanted with HT-29 tumors and treated by intraperitoneal administration (bevacizumab) or bolus intravenous injection (5-FU or DPV1047-BCH-SN38) at 10 μL/g. […] The T/C ratio was calculated following treatment with either bevacizumab, 5-FU or DPV1047-BCH-SN38. These T/C ratios were used to evaluate the expected T/C for combined treatment with bevacizumab and DPV1047-BCH-SN38, or 5-FU and DPV1047-BCH-SN38 (T/C of DPV1047-BCH-SN38×T/C of bevacizumab or 5-FU). […] The combination index of the two molecules was calculated by dividing the expected T/C by the observed T/C.

NCI-H460 lung carcinoma = test: Antitumor efficacy in NCI-H460 lung carcinoma model in nude mice; conditions: Table 7, i.v. Q2D3 × 3 W
[2] = Pharmacokinetic study in the dog (blood, HPLC fluorescence); format: in vivo
Method: Peripheral blood samples were taken at different times following infusion for pharmacokinetic analysis.
Blood samples (2.5 mL) were collected in 5 mL in trisodium citrate tubes (Sarstedt S-Monovette® 9NC) containing 2.5 mL of 5% TFA (v/v) and vortexed for 5 seconds before storage at −80° C. (for less than two weeks).
Samples were then analyzed after a TFA and acetonitrile extraction by an HPLC fluorescence method, described below. […] Whole blood samples were acidified with TFA to protect the ester link of the conjugate against hydrolysis and allow protein precipitation to improve conjugate and SN38 recovery.
Five hundred microliters of each sample were then placed in 1.5 mL micro-centrifuge tubes to and centrifuged at 16000×g 3 min at +4° C. […] Methanol (100 μL) was then immediately added and the mixture stirred vigorously (vortex) for 5 seconds. Samples were then centrifuged at 16000×g, 3 min at room temperature.
One hundred and fifty microliters of the supernatant was recovered for HPLC analysis.
DPV1047-BCH-SN38 and its metabolite SN38 were separated by high-performance liquid chromatography (HPLC Agilent 1100 with a fluorescence detector) using the following method: […]

CCc1c2c(nc3ccc(OC(=O)[C@H]4CC[C@H](CNC(=O)C5CCC(CN6C(=O)CC(SC[C@H](N)C(=O)N[C@H](C(=O)N[C@@H](CCCCN)C(=O)N[C@@H](CCCNC(=N)N)C(=O)NCC(=O)N[C@@H](CC(C)C)C(=O)N[C@@H](CCCCN)C(=O)N[C@@H](CC(C)C)C(=O)N[C@@H](CCCNC(=N)N)C(=O)N[C@@H](Cc7c[nH]cn7)C(=O)N[C@H](C(=O)N[C@@H](CCCNC(=N)N)C(=O)N7CCC[C@H]7C(=O)N[C@@H](CCCNC(=N)N)C(=O)N[C@H](C(=O)N[C@H](C(=O)N[C@@H](CCCNC(=N)N)C(=O)N[C@@H](CCSC)C(=O)N[C@@H](CC(=O)O)C(=O)N[C@H](C(=O)O)C(C)C)[C@@H](C)O)C(C)C)C(C)C)C(C)C)C6=O)CC5)CC4)cc13)-c1cc3c(c(=O)n1C2)COC(=O)[C@]3(O)CC (single isomer, unassigned) [DPV1047-BCH-SN38]
reduction in WBCs ([1]; dog, 20 mg/kg): 93%
clinical signs of toxicity ([1]; dog, 30 mg/kg): clear toxicological signs including diarrhea and a severe hematoxicity
Reduction in WBC at D5 (%) ([1]; dog, 5 mg/kg): −60%
Toxic signs Day 1 ([1]; dog, 5 mg/kg): None
Toxic signs Following Days ([1]; dog, 5 mg/kg): None
Reduction in WBC at D5 (%) ([1]; dog, 10 mg/kg): −50% and −57%
Toxic signs Day 1 ([1]; dog, 10 mg/kg): None
Toxic signs Following Days ([1]; dog, 10 mg/kg): None
Reduction in WBC at D5 (%) ([1]; dog, 20 mg/kg): −93%
Toxic signs Day 1 ([1]; dog, 20 mg/kg): None
Toxic signs Following Days ([1]; dog, 20 mg/kg): Decrease in food
Reduction in WBC at D5 (%) ([1]; dog, 30 mg/kg): −96%
Toxic signs Day 1 ([1]; dog, 30 mg/kg): None
Toxic signs Following Days ([1]; dog, 30 mg/kg): Liquid faeces D4
MTD ([1]; dog, in vivo, iv): ~20 mg/kg
clinical signs ([1]; dogs, 5 and 10 mg/kg): no clinical signs
Single treatment DPV1047-BCH-SN38 T/C % (HT-29 tumors; 12.5 μmol/kg, 5-FU combination experiment): 68%
Single treatment DPV1047-BCH-SN38 T/C % (HT-29 tumors; 12.5 μmol/kg, bevacizumab combination experiment): 77%
Single treatment DPV1047-BCH-SN38 T/C % (HT-29 tumors; 25 μmol/kg, 5-FU combination experiment): 50%
Single treatment DPV1047-BCH-SN38 T/C % (HT-29 tumors; 25 μmol/kg, bevacizumab combination experiment): 69%
Optimal T/C % (NCI-H460 lung carcinoma; 12.5 μmol/kg): 47.5%
TGI % (NCI-H460 lung carcinoma; 12.5 μmol/kg): 52.5%
Optimal T/C % (NCI-H460 lung carcinoma; 25 μmol/kg): 22.9%
TGI % (NCI-H460 lung carcinoma; 25 μmol/kg): 77.1%
circulating half life time in the blood compared to DPV1047-MIC-SN38 ([2]; dog blood (FIG. 2)): longer
AUC of SN38 compared to DPV1047-MIC-SN38 ([2]; dog blood, equimolar dose (FIG. 1)): significantly greater
SN38 Cmax and AUC versus dose of the conjugate ([2]; dog blood, non-toxic doses (DPV1047-BCH-SN38 ≦20 mg/kg, DPV1047-MIC-SN38 ≦50 mg/kg)): increased linearly with the dose

Source: patent US8410045B2, “Camptothecin-peptide conjugates and pharmaceutical compositions containing the same” (Drais Pharmaceuticals, Inc., priority 2006, dated 2013)
